Source: patent US6852509 (dated 2005)

B1: ScFv 11D3-myc (scFv)
scFv: QVKLQESGAELVRSGASVNLSCTASGFNIKDYYMHWVKQRPEEGLEWIGYIDPESGETEYAPNFQGKATVTADTSSNTAYLHLSSLTSEDTTVYYCNAVIYYEYDGYALDYWGQGTTVTVSSGGGGSGGGGSGGGGSDIELTQSPSSLAVSAGEKVAMSCKSSQSLFNSRTRKNYLAWYQQKPGQSPKVLIYWASTRESGVPDRFTGSGSGTDFTLTISSVQAEDLAVYYCKQSYNLPTFGGGTKLEIK
notes: Produced from bacterial periplasm; also called 11D3 ScFv; D3M ScFv; not shown: myc tag fused for detection
B2: ScFv 421-myc (scFv)
scFv: QVQLQQSGAELVRSGASVKLSCTASGFNIKDYYMHWVKQRPEQGLEWIGWIDPENGDTEYAPKFQGKATMTADTSSNTAYLQLSSLASEDTAVYYCNFYGDALDYWGQGTTVTVSSGGGGSGGGGSGGGGSDVLMTQTPLTLSVTIGQPASISCKSSQSLLDSDGKTYLNWLLQRPGQSPKRLIYLVSKLDSGVPDRFTGSGSGTDFTLKINRVEAEDLGVYYCWQGTHSPLTFGAGTKLEIK
notes: Produced from bacterial periplasm; not shown: myc tag fused for detection

Biological target: T1, wild-type p53 protein (UniProt P04637 1-393)
T1 construct: also called purified p53
T1 sequence (P04637 whole entry): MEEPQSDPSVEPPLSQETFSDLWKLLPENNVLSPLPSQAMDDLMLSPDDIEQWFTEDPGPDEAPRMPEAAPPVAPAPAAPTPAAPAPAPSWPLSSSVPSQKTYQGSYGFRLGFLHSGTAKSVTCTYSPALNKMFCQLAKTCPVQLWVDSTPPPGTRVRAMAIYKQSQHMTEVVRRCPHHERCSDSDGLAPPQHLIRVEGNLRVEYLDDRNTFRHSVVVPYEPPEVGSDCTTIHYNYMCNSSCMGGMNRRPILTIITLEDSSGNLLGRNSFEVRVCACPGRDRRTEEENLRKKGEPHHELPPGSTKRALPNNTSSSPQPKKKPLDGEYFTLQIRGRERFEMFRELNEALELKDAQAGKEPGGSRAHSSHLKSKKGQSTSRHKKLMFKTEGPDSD
Assay: ELISA on plates coated with purified p53
Source text: The two IgGs are then visualized using a secondary anti-IgG antibody which is coupled to alkaline phosphatase. The biotinylated serum is visualized using extravidin which is coupled to alkaline phosphatase. The ScFvs are visualized using the anti-myc antibody 9E10 and then using an anti-IgG antibody which is coupled to alkaline phosphatase.

| Binder | binding result |
| --- | --- |
| B1 | binds |
| B2 | binds |
